From doi:10.1101/2022.03.11.483953 (2022)
No end group written: not given here.

What was measured:
[1] = target: T1, Cdc42^2-178 (C-terminally truncated Cdc42 lacking its geranylgeranylation motif) (UniProt Q05062 2-178); test: FP; GMPPNP-loaded Cdc42
[2] = target: T1, Cdc42^2-178 (C-terminally truncated …); test: FP; GDP-loaded Cdc42

T1 sequence (Q05062 2-178): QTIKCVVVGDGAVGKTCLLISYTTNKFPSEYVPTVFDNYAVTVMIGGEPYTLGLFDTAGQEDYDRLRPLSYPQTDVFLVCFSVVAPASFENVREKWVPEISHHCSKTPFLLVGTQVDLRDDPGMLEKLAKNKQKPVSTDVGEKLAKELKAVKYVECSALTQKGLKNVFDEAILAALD

Kd [1]: 264 µM
Kd [2]: 1120 µM
B1: FITC-labeled CRIB peptide of C. elegans MRCK1 (residues 1543-1572) (peptide)
peptide: QISTPSDFMHIVHMGPAPVMELQQNFIDLQ
modifications: also: FITC label, position not given here
